Laboratory results published in patent publication US20230322953A1.

Assays:
[1] = target: human CD3 (TCR/CD3 complex) on human T cells (human) (UniProt P07766); assay: flow cytometry (FACS) on human T cells, Experiment 2, isotype control
[2] = target: human CD3 (TCR/CD3 complex) on human T cells (human) (UniProt P07766); assay: flow cytometry (FACS) on human T cells, Experiment 3, isotype control
[3] = target: cynomolgus monkey CD3 (TCR/CD3 complex) on cynomolgus monkey T cells (cynomolgus monkey); assay: flow cytometry (FACS) on cynomolgus monkey T cells, isotype control
Sequence of cynomolgus monkey CD3 (TCR/CD3 complex) on cynomolgus monkey T cells (cynomolgus monkey) (Q95LI5 22-198, one chain of several): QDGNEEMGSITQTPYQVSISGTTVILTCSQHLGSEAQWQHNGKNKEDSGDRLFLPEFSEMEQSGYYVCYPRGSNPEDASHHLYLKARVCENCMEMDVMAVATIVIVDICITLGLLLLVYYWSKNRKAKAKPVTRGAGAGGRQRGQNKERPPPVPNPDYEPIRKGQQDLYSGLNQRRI

Sequence of human CD3 (TCR/CD3 complex) on human T cells (human) (P07766 23-207, one chain of several): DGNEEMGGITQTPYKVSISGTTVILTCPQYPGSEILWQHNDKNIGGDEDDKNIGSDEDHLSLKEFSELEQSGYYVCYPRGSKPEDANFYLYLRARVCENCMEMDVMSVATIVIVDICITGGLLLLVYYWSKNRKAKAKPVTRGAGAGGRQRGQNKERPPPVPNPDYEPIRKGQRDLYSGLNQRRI

hIgG1 iso (CrownBio, #C0001) (antibody)
Maximum MFI [1]: 12 MFI
Maximum MFI [2]: 3000 MFI
Maximum MFI [3]: 794 MFI
